This assay has as its target T1, purified p53 protein (Abcam) (UniProt P04637 1-393).
T1 construct: p53 protein bought from Abcam; also called immobilized p53; source: bought: Abcam
Put plainly: ELISA; solid phase direct binding assay; p53 immobilised on 96-well plates at 5 μg/well, 20 h, 4 °C; 3% BSA; GST-tagged Kindlin-2 variants or GST 0–7 µM in TBS with 1 mM CaCl2, 1 mM MgCl2, 2 h at 37 °C; detected with anti-GST-HRP; GST signal subtracted; one-site binding fit. As to conditions: both partners purified.

By EC50 is commonly meant the concentration that produces a half-maximal response. A high value points to a need for much substance.

T1 sequence (P04637 whole entry): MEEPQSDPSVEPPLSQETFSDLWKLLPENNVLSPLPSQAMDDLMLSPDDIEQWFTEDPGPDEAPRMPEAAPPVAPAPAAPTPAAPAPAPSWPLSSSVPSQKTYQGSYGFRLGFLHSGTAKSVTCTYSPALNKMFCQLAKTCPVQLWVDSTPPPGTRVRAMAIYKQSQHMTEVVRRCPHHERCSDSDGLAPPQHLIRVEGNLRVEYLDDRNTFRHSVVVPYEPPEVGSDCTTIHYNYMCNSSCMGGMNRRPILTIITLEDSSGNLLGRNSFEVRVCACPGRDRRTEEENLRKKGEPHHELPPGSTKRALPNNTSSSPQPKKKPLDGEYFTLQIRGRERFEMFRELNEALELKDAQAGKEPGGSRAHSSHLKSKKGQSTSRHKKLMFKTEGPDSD

B1: GST-tagged full-length wild-type Kindlin-2 (natural protein, UniProt Q96AC1 1-680, looked up)
chain: MALDGIRMPDGCYADGTWELSVHVTDLNRDVTLRVTGEVHIGGVMLKLVEKLDVKKDWSDHALWWEKKRTWLLKTHWTLDKYGIQADAKLQFTPQHKLLRLQLPNMKYVKVKVNFSDRVFKAVSDICKTFNIRHPEELSLLKKPRDPTKKKKKKLDDQSEDEALELEGPLITPGSGSIYSSPGLYSKTMTPTYDAHDGSPLSPTSAWFGDSALSEGNPGILAVSQPITSPEILAKMFKPQALLDKAKINQGWLDSSRSLMEQDVKENEALLLRFKYYSFFDLNPKYDAIRINQLYEQAKWAILLEEIECTEEEMMMFAALQYHINKLSIMTSENHLNNSDKEVDEVDAALSDLEITLEGGKTSTILGDITSIPELADYIKVFKPKKLTLKGYKQYWCTFKDTSISCYKSKEESSGTPAHQMNLRGCEVTPDVNISGQKFNIKLLIPVAEGMNEIWLRCDNEKQYAHWMAACRLASKGKTMADSSYNLEVQNILSFLKMQHLNPDPQLIPEQITTDITPECLVSPRYLKKYKNKQITARILEAHQNVAQMSLIEAKMRFIQAWQSLPEFGITHFIARFQGGKKEELIGIAYNRLIRMDASTGDAIKTWRFSNMKQWNVNWEIKMVTVEFADEVRLSFICTEVDCKVVHEFIGGYIFLSTRAKDQNESLDEEMFYKLTSGWV
notes: Kindlin-2, full length, wild type; expressed as a GST fusion protein; also called Kindlin-2-GST; GST-tagged WT Kindlin-2; source: Escherichia coli, purified on Glutathione-Sepharose
The molecule B1 came in with an EC50 of 480 nM.

Source of the values: publication PMC6629707, “The Kindlin2-p53-SerpinB2 signaling axis is required for cellular senescence in breast cancer” (Cell Death & Disease, 2019).
